This data set concerns the target T1, recombinant human XAB2 (Homo sapiens, UniProt Q9HCS7 1-855).
T1 sequence: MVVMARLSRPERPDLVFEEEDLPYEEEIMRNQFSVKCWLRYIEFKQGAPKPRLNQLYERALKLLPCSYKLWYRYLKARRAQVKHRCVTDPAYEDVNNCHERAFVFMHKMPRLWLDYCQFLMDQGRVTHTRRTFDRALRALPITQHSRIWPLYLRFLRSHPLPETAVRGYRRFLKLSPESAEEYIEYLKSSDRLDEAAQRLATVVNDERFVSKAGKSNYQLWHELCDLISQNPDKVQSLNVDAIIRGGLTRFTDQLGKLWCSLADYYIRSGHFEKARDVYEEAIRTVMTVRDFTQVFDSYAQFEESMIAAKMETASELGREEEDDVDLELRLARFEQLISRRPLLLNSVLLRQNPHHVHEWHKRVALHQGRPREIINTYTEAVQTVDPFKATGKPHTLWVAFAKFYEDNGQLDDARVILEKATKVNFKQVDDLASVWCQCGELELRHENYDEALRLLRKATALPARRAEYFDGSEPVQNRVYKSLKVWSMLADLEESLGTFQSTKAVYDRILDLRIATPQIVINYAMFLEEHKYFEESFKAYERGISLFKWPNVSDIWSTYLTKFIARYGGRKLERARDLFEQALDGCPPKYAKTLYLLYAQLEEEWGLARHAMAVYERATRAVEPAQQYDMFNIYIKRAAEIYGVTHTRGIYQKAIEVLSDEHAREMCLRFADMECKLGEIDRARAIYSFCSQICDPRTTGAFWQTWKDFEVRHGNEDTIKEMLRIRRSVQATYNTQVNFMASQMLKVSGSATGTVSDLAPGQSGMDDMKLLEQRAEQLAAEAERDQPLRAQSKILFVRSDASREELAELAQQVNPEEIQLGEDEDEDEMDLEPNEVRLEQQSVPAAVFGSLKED
Put plainly: EMSA; 0.1-10 nmol protein, 100 pmol RNA; no consumption of RNA oligo; 10 mM Tris-HCl pH 8.0, 50 mM KCl, 10% glycerol, 0.5 mM EDTA, 0.5 mM DTT, 1 ug/ml BSA, 6 mM MgCl2, 30 min at 4 C, 10 ul, 100 pmol RNA; 4% native PAGE in 0.5x TBE pH 7.5. Particulars: protein: commercial; label: 5' biotin; single strand. Background: A gel shift assay detects complexes by their altered migration in electrophoresis.

B1: XAB2RBS (ssRNA)
RNA: AUUGGAACGAUACAGAGAAGAU
As to B1, the binding result is on record as “no binding”.

These data come from article PMC8155215, “The splicing factor XAB2 interacts with ERCC1-XPF and XPG for R-loop processing”.
